“And” between values parts separate entries of the source, which are not always exact repeats. Identical values can stand only once.
Assays:
[1] = molecular target: T1, human C1ORF32 protein (SEQ ID NO: 1) (human, UniProt Q71H61 21-234); assay: cell-based or functional assay
T1 sequence: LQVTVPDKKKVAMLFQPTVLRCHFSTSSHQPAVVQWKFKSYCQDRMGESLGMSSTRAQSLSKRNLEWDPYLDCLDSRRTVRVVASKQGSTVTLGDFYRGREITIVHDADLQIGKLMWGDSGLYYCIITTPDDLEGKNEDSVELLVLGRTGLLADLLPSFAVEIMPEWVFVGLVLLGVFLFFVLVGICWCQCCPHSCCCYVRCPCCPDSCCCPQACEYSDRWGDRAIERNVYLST

[2] = molecular target: T2, C1ORF32-ECD-mIgG2a fusion protein (SEQ ID NO: 24); assay: hybridoma binding screen by ELISA on fusion proteins SEQ ID NO: 23 and SEQ ID NO: 24 or on HEK293T cells over expressing C1ORF32
T2 chain: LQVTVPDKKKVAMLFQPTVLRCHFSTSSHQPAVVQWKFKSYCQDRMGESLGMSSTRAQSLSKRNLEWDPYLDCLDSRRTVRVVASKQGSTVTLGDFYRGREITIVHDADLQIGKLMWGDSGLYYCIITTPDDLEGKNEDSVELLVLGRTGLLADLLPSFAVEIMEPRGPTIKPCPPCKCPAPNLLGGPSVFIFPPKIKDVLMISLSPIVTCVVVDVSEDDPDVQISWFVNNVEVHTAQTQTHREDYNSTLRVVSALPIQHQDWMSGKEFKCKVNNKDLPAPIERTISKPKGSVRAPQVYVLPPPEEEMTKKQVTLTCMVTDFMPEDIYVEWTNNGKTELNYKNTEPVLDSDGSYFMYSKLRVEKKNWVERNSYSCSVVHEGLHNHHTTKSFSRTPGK
Procedure: (§1) Binding screening was performed by ELISA using fusion proteins C1ORF32-ECD-hIgG1 (SEQ ID NO: 23) and C1ORF32-ECD-mIgG2a (SEQ ID NO: 24) or stable pool of HEK293T cells over expressing C1ORF32 described in section “Generation of stable pools expressing C1ORF32 protein” herein. […] Hybridomas were stabilized, subcloned and processed for antibody production and purification.

[3] = molecular target: C1ORF32-ECD-hIgG1 fusion protein (SEQ ID NO: 23); assay: as above
Procedure: as §1

[4] = molecular target: T3, mouse C1ORF32-Flag tagged protein (SEQ ID NO: 21) (mouse, UniProt B5TVM2 36-661); assay: flow cytometry on HEK293T cells expressing mouse C1ORF32-Flag (SEQ ID NO: 21; panel title: 293-C1ORF32 HA MOUSE CELLS), antibody 20 ug/ml, anti mouse DyLight 549 secondary
T3 sequence: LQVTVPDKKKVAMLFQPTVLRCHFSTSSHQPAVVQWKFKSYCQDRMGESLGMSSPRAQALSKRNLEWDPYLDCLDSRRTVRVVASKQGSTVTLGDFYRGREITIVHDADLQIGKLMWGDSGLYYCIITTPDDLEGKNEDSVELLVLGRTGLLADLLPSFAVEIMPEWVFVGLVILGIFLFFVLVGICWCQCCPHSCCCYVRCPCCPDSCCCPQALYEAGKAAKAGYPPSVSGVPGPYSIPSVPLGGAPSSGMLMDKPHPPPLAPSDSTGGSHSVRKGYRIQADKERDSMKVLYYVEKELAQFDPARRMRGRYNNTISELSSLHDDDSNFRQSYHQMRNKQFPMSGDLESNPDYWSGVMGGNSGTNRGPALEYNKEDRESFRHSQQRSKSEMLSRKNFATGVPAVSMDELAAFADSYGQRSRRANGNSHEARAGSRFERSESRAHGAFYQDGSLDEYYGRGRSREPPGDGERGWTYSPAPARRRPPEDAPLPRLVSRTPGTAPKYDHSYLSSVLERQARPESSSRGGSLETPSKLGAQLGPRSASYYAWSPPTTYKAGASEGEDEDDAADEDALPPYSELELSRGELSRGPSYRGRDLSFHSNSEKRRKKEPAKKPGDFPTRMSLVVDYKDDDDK
Procedure: (§2) FIG. 5A presents empty vector transfected cells; FIG. 5B presents human-C1ORF32 transfected cells (SEQ ID NO:1), FIG. 5C presents human-C1ORF32-HA tagged transfected cells(SEQ ID NO: 22); FIG. 5D presents chimeric mouse-human C1ORF32 transfected cells (SEQ ID NO: 8); FIG. 5E presents mouse C1ORF32 transfected cells (SEQ ID NO: 21).
(§3) Flow Cytometry analysis was performed to verify the mAbs binding to native cell surfaced C1ORF32 protein (SEQ ID NO: 1) in stable transfected cells described above. […] Anti-Cephalosporin served as negative control (SLRC, CH2025P). Recombinant HEK293T cells expressing C1ORF32 proteins, i.e. human C1ORF32 (SEQ ID NO:1), chimeric human-mouse C1ORF32 (SEQ ID NO:8) and mouse C1ORF32—Flag tagged (SEQ ID NO:21) were stained with anti C1ORF32 antibodies or anti-Cephalosporin followed by Donkey Anti Mouse-DyLight 549 conjugated secondary Ab (Jackson 715-506-150) as described in Example 6, herein. Fluorescent signal was observed.

[5] = molecular target: T1, human C1ORF32 protein (SEQ ID NO: 1); assay: flow cytometry on HEK293T cells expressing human C1ORF32 untagged (SEQ ID NO: 1), antibody 20 ug/ml, anti mouse DyLight 549 secondary
Procedure: as §2, §3

[6] = molecular target: T4, chimeric mouse-human C1ORF32 (SEQ ID NO: 8) (chimeric mouse (ECD) / human (tail), UniProt B5TVM2 36-249); assay: flow cytometry on HEK293T cells expressing chimeric mouse-human C1ORF32 (SEQ ID NO: 8; panel title: 293T-C1ORF32 HA MUTATED CELLS), antibody 20 ug/ml, anti mouse DyLight 549 secondary
T4 construct: also called mouse-human chimeric C1ORF32; chimeric human-mouse C1ORF32
T4 chain: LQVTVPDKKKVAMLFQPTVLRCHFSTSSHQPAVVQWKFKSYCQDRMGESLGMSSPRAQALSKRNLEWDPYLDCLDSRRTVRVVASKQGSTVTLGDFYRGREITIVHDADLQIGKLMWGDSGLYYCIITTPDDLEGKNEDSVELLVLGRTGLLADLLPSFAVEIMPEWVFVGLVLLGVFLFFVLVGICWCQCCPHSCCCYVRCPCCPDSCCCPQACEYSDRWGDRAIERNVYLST
Procedure: as §2, §3

[7] = molecular target: T5, C1ORF32-ECD-mouse IgG2a-fused protein (SEQ ID NO: 4) (human C1ORF32 ECD, mouse IgG2a Fc); assay: hybridoma binding screen by ELISA on ECD-mIgG2a fusion protein (SEQ ID NO: 4) or on HEK-293T cells over expressing C1ORF32
T5 construct: Purified recombinant fusion protein; also called C1ORF32-ECD-mouse IgG2a fusion protein; recombinant ECD-mIgG2a fusion protein
T5 chain: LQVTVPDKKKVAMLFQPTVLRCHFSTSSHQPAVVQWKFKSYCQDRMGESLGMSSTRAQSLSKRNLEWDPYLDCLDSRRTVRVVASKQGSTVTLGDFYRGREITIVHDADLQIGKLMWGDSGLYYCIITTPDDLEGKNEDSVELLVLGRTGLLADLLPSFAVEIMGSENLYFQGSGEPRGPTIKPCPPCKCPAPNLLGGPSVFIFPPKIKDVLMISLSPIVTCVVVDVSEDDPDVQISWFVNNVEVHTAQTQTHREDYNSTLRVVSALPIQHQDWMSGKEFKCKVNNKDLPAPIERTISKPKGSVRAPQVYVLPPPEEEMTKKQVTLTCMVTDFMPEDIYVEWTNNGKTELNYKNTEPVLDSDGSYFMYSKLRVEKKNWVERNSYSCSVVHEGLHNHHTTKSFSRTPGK
Source text: Three positive clones were further processed for subcloning in order to establish stable hybridoma clones. Hybridomas were stabilized, subcloned and processed for antibody production and purification.

[8] = molecular target: T6, human C1ORF32-HA tagged protein (SEQ ID NO: 22) (human); assay: flow cytometry on HEK293T cells expressing human C1ORF32-HA tagged (SEQ ID NO: 22), antibody 20 ug/ml, anti mouse DyLight 549 secondary
T6 chain: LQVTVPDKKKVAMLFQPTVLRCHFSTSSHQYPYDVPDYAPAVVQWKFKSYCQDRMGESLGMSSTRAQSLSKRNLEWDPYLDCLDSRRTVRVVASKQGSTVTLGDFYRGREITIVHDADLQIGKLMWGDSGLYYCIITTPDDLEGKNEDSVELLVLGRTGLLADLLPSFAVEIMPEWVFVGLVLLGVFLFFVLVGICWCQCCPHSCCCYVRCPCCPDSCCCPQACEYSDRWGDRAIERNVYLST
Procedure: as §2, §3

[9] = molecular target: T1, human C1ORF32 protein (SEQ ID NO: 1); assay: flow cytometry titration of 5159-1 on HEK293T cells expressing human C1ORF32
Procedure: (§4) The cells were washed once in FACS buffer, re-suspended in 25 ul of Alexa Fluor 647 conjugated F(ab′)2 fragment of goat anti mouse IgG (Jackson Immunoresearch cat#115-606-146) for 30 minutes at 4 degrees C. The cells were washed again in FACS buffer, re-suspended in 35 ul of FACS buffer and 35 ul of 4% paraformaldehyde and analysed on either a FACS Calibur or an Intellicyt HTFC. Data was analyzed by FlowJo, Excel and GraphPad Prism.

[10] = molecular target: T1, human C1ORF32 protein (SEQ ID NO: 1); assay: flow cytometry titration of 5159-1 on CHOK1 cells expressing human C1ORF32
Procedure: as §4

Binder | CDC activity, EC50, on CHOK1 cells expressing C1ORF32 (CellTiter-Glo viability, rabbit complement, 1 hr) [1] | CDC activity, EC50, on HEK293T cells expressing C1ORF32 (CellTiter-Glo viability, rabbit complement, 1 hr) [1] | binding result [2] | binding result [3] | binding result [4] | binding result [5] | binding result [6] | binding result [7] | binding result [8] | EC50 (read off the curve) [9] [µg/mL] | EC50 (read off the curve) [10] [µg/mL]
anti C1ORF32 monoclonal antibody 5166-9 (antibody, V domains shown, Murine IgM k from a hybridoma) VH: EVKMVESGGGLVQPGGSLKLSCATSGFTFSDYYMYWVRQTPEKRLEWVAYISNGGGSTYYPDTVKGRFTISRDNAKNTLYLQMSRLKSEDTAMYYCARQGYYYGSSPFAYWGQGTLVTVSA VL: DIVMTQSHKFMSTSVGDRVSITCKASQDVSTAVAWYQQKPGQSPKLLIYSASYRYTGVPDRFTGSGSGTDFTFTISSVQAEDLAVYYCQQHYSTPYTFGGGTKLEIK | 33 ng/ml and 0.2 nM | 1.8 ng/ml and 0.01 nM | binds | binds |  |  |  |  |  |  | 
anti C1ORF32 monoclonal antibody 5159-2 (antibody, V domains shown, Murine IgG1 k from a hybridoma) VH: QVTLKESDPGILQPSQTLSLTCSFSGFSLSTSGMGVGWIRQPSGKGLEWLAHIWWDDVKRYNSALKNRLTISKDTSSSQVFLKIANVDTADTATYYCARIARHFFDYWGQGTTLTVSS VL: DIKMTQSPSSMYASLGERVTITCKASQDIHGYLSWFHQKPVKSPKTLIYRANRLIDGVPSRFSGSGSGQDYFLTISSLEYEDMGIYYCLQYDEFPWTFGGGTKLEIK |  |  |  |  | binds | binds | binds | binds | binds |  | 
anti C1ORF32 monoclonal antibody 5159-1 (antibody, V domains shown, Murine IgG1 k from a hybridoma) VH: QVTLKESGPGILQPSQTLNLTCSFSGFSLSSSYMGVGWIRQPSGKGLEWLAHIWWDDVKRYNPALKSRLTISKDISNNQVFLKIASVDTADSATYYCGRIDRHYFDYWGQGTILTVSS VL: DIKMTQSPSSIYASLGERVTITCKASQDINGYLTWFQQKPGKSPKTLIYRANRLLDGVPSRFSGSGSGQDYSLTISSLDYEDMGIYYCLQYDEFPWTFGGGTKLEIK |  |  |  |  |  |  | binds | binds | binds | ~0.8 | ~1
anti C1ORF32 monoclonal antibody 5166-2 (antibody, V domains shown, Murine IgG1 k from a hybridoma) VH: QIQLVQSGPELKKPGETVKISCKASAYTFTDYSMHWVKQAPGKGLKWMGWINTETGEPTYAGDFKGRFAFSLETSASTAYLQINNLKNEDTATYFCVRAGYYDYFDYWGQGTTLTVSS VL: DIVMTQSHKFMSTSVGDRVSITCKASQDVVTAVAWYQQKPGQSPKLLIYWASNRHTGVPDRFTGSGSGTDFTLTITNVQSEDLADYFCQQYSSYPLTFGGGTKLEIK |  |  | binds | binds |  |  |  |  |  |  | 
